Laboratory results: US9850520B2, “Electrochemical detection of proteases using AC voltammetry on nanoelectrode arrays” (Kansas State University Research Foundation, priority 2013, dated 2017)

Biological target: T1, H2N—(CH2)4—CO-(SEQ ID NO:1)-NH—CH2-Fc (Homo sapiens, UniProt Q99538)
T1 construct: purchased R&D Systems Inc. (Minneapolis, Minn.)
T1 sequence (Q99538 18-323 limits assumed): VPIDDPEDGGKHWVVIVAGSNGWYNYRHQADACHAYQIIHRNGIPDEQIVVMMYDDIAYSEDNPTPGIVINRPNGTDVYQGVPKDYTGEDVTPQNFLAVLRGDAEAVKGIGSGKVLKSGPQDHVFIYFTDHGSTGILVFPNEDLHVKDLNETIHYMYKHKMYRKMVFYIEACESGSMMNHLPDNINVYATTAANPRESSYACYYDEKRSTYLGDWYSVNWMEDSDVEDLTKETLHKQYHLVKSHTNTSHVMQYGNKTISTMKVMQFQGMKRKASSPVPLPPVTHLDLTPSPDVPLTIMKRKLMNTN
Assay: ACV proteolysis kinetics of legumain on Fc-tetrapeptide immobilized on VACNF NEA
Format: biochemical
Excerpt: In the protease study, a tetrapeptide H2N—(CH2)4—CO-(SEQ ID NO:1)-NH—CH2-Fc is covalently attached to the exposed tip of a VACNF NEA as shown in FIG. 2. Fc provides reliable redox signals at 0.25 V vs. Ag/AgCl (3M KCl) in ACV measurements. As shown in later sections, the unique structure of VACNF NEA enables the enhanced ACV signal at over 1750 Hz AC frequency. Upon being supplied with legumain (a cancer related protease), the peptide is cleaved at the site between Asn and Leu. As a result, the Fc moiety is released from the electrode surface into bulk solution, causing the redox signal to decrease. The kinetic of the enzymatic reaction at the electrode surface can be monitored by continuously repeated ACV measurements. The advantage of this method is that the Fc label provides a characteristic redox signal which can be easily separated from the nonFaradaic background and other redox signals. However, the mechanism becomes complicated for enzymes requiring much longer peptide sequences for specific recognition. The Fc signal involves electron transfer between Fc molecule and the electrode surface, which is highly sensitive to the Fc surface distance. This may vary in a large range depending on the molecular packing of the long peptides on the electrode surface.
For protease analysis, the tetrapeptide H2N—(CH2)4—CO-(SEQ ID NO:1)-NHCH2-Fc was covalently linked to the VACNF NEA by forming amide bond facilitated by EDC and sulfo-NHS. In order to stabilize the electronic signal, the electrode surface was reacted with 6-amino-1-hexanol to fill the remaining —COOH sites. […]
The electrochemical measurements were performed in a TEFLON cell with a total volume of 250 μL for legumain experiments and 120 μL for kinase/phosphatase experiments. […] The average AC current was measured as the potential was swept from −0.05 to +0.65 V at 10 mV/s scan rate using a staircase waveform. […]
The change in peak current (ip,acv) during continuously repeated ACV measurements with Fc-linked tetrapeptide immobilized on a VACNF NEA was measured. […]

[1] = Example 4, [E0]=80.1 nM legumain

B1: legumain: Recombinant human legumain/asparaginyl endopeptidase (molecular weight 49 kDa) from R&D Systems (protein, UniProt Q99538 18-323, looked up)
Legumain: T1 sequence (Q99538 18-323 limits assumed)
For B1, the “time constant of exponential decay” value (Example 1, [E0]=773 nM legumain, f 1750 Hz, V0 150 mV) was 1076 s, the “slope of reaction rate vi vs Γsurf” value [1] was 0.00063 s⁻¹ and the “time constant of exponential decay” value [1] was 1101 s.
